Reference: IntAct's records for PubMed 15886098

B1: Ras and Rab interactor 1 (Homo sapiens), Q13671 (parent)
chain: MESPGESGAGSPGAPSPSSFTTGHLAREKPAQDPLYDVPNASGGQAGGPQRPGRVVSLRERLLLTRPVWLQLQANAAAALHMLRTEPPGTFLVRKSNTRQCQALCMRLPEASGPSFVSSHYILESPGGVSLEGSELMFPDLVQLICAYCHTRDILLLPLQLPRAIHHAATHKELEAISHLGIEFWSSSLNIKAQRGPAGGPVLPQLKARSPQELDQGTGAALCFFNPLFPGDLGPTKREKFKRSFKVRVSTETSSPLSPPAVPPPPVPVLPGAVPSQTERLPPCQLLRRESSVGYRVPAGSGPSLPPMPSLQEVDCGSPSSSEEEGVPGSRGSPATSPHLGRRRPLLRSMSAAFCSLLAPERQVGRAAAALMQDRHTAAGQLVQDLLTQVRAGPEPQELQGIRQALSRARAMLSAELGPEKLLSPKRLEHVLEKSLHCSVLKPLRPILAARLRRRLAADGSLGRLAEGLRLARAQGPGAFGSHLSLPSPVELEQVRQKLLQLLRTYSPSAQVKRLLQACKLLYMALRTQEGEGAGADEFLPLLSLVLAHCDLPELLLEAEYMSELLEPSLLTGEGGYYLTSLSASLALLSGLGQAHTLPLSPVQELRRSLSLWEQRRLPATHCFQHLLRVAYQDPSSGCTSKTLAVPPEASIATLNQLCATKFRVTQPNTFGLFLYKEQGYHRLPPGALAHRLPTTGYLVYRRAEWPETQGAVTEEEGSGQSEARSRGEEQGCQGDGDAGVKASPRDIREQSETTAEGGQGQAQEGPAQPGEPEAEGSRAAEE
B2: Tyrosine-protein kinase ABL2 (Homo sapiens), P42684 (parent)
chain: MGQQVGRVGEAPGLQQPQPRGIRGSSAARPSGRRRDPAGRTTETGFNIFTQHDHFASCVEDGFEGDKTGGSSPEALHRPYGCDVEPQALNEAIRWSSKENLLGATESDPNLFVALYDFVASGDNTLSITKGEKLRVLGYNQNGEWSEVRSKNGQGWVPSNYITPVNSLEKHSWYHGPVSRSAAEYLLSSLINGSFLVRESESSPGQLSISLRYEGRVYHYRINTTADGKVYVTAESRFSTLAELVHHHSTVADGLVTTLHYPAPKCNKPTVYGVSPIHDKWEMERTDITMKHKLGGGQYGEVYVGVWKKYSLTVAVKTLKEDTMEVEEFLKEAAVMKEIKHPNLVQLLGVCTLEPPFYIVTEYMPYGNLLDYLRECNREEVTAVVLLYMATQISSAMEYLEKKNFIHRDLAARNCLVGENHVVKVADFGLSRLMTGDTYTAHAGAKFPIKWTAPESLAYNTFSIKSDVWAFGVLLWEIATYGMSPYPGIDLSQVYDLLEKGYRMEQPEGCPPKVYELMRACWKWSPADRPSFAETHQAFETMFHDSSISEEVAEELGRAASSSSVVPYLPRLPILPSKTRTLKKQVENKENIEGAQDATENSASSLAPGFIRGAQASSGSPALPRKQRDKSPSSLLEDAKETCFTRDRKGGFFSSFMKKRNAPTPPKRSSSFREMENQPHKKYELTGNFSSVASLQHADGFSFTPAQQEANLVPPKCYGGSFAQRNLCNDDGGGGGGSGTAGGGWSGITGFFTPRLIKKTLGLRAGKPTASDDTSKPFPRSNSTSSMSSGLPEQDRMAMTLPRNCQRSKLQLERTVSTSSQPEENVDRANDMLPKKSEESAAPSRERPKAKLLPRGATALPLRTPSGDLAITEKDPPGVGVAGVAAAPKGKEKNGGARLGMAGVPEDGEQPGWPSPAKAAPVLPTTHNHKVPVLISPTLKHTPADVQLIGTDSQGNKFKLLSEHQVTSSGDKDRPRRVKPKCAPPPPPVMRLLQHPSICSDPTEEPTALTAGQSTSETQEGGKKAALGAVPISGKAGRPVMPPPQVPLPTSSISPAKMANGTAGTKVALRKTKQAAEKISADKISKEALLECADLLSSALTEPVPNSQLVDTGHQLLDYCSGYVDCIPQTRNKFAFREAVSKLELSLQELQVSSAAAGVPGTNPVLNNLLSCVQEISDVVQR
partner: B1 chain

Variants of: B1
Details: with abl2_human ABL2, P42684

effect of a mutation on the interaction | Variant
decreasing interaction | Y36F;Y121F;Y148F

Variants of: B2
Details: with rin1_human RIN1, Q13671

effect of a mutation on the interaction | Variant
decreasing interaction | K317R
